In article PMC5564220 (Cell reports, 2017):
Where “and” joins values, the source holds several entries; their conditions need not be identical. Identical values can stand only once.

Columns and labels:
[1] = target: T1, Rvb1/Rvb2 complex (untagged hexamer) (S. cerevisiae, UniProt Q03940 1-463; Q12464 1-471); experiment: SEC-MALS
[2] = target: T1, Rvb1/Rvb2 complex (untagged hexamer); experiment: native MS
[3] = target: T2, Rvb2 (S. cerevisiae, UniProt Q12464 1-471); experiment: intact denatured mass spectrometry
T2 sequence (Q12464 whole entry): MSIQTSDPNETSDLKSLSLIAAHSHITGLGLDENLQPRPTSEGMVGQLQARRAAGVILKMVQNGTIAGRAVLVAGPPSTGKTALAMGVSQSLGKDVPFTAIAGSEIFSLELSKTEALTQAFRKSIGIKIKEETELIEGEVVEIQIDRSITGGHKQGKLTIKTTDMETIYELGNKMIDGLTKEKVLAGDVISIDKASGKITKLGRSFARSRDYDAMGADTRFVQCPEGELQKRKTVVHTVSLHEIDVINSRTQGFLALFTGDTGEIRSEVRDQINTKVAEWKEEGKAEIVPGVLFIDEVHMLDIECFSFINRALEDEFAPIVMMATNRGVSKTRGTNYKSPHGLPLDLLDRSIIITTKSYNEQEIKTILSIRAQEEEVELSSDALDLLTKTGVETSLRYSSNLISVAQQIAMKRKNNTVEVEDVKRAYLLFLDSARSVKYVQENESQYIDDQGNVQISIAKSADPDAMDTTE

[4] = target: T2, Rvb2; experiment: native MS

T1 sequence (Q12464 whole entry, one chain of several): as the sequence (Q12464 whole entry) above

| Binder | stoichiometry N [1] | stoichiometry N [2] | stoichiometry N [3] | stoichiometry N [4] |
| --- | --- | --- | --- | --- |
| MBP-Ino80INS (insertion domain of the Ino80 ATPase, residues 1022-1294, MBP fusion with C-terminal histidine tag) (domain or fragment, yeast, UniProt P53115 1022-1294, looked up) VDSPFSFTTFGKTTSMLTASVANNNSSVISNSNMNLSSMSSNNISNGKFTDLIYSSRNPIKYSLPRLIYEDLILPNYNNDVDIANKLKNVKFNIFNPSTNYELCLFLSKLTGEPSLNEFFRVSTTPLLKRVIERTNGPKNTDSLSFKTITQELLEVTRNAPSEGVMASLLNVEKHAYEREYLNCIQRGYHPNVSAPPVTIEVLGSSHVTNSINNELFDPLISQALSDIPAITQYNMHVKKGIPVEDFPKTGLFPEPLNKNFSSNISMPSMDRF | ≥ 2 copies of Ino80INS per Rvb1/Rvb2 dodecamer | 3 copies of Ino80INS per Rvb1/Rvb2 dodecamer and 1 copies of MBP-Ino80INS per Rvb1/Rvb2 hexamer and 2 copies of Ino80INS per Rvb1/Rvb2 dodecamer |  |  |
| Rvb1 (enzyme, S. cerevisiae, UniProt Q03940 1-463, looked up) MVAISEVKENPGVNSSNSGAVTRTAAHTHIKGLGLDESGVAKRVEGGFVGQIEAREACGVIVDLIKAKKMSGRAILLAGGPSTGKTALALAISQELGPKVPFCPLVGSELYSVEVKKTETLMENFRRAIGLRIKETKEVYEGEVTELTPEDAENPLGGYGKTISHVIVGLKSAKGTKTLRLDPTIYESIQREKVSIGDVIYIEANTGAVKRVGRSDAYATEFDLETEEYVPLPKGEVHKKKEIVQDVTLHDLDVANARPQGGQDVISMMGQLLKPKKTEITEKLRQEVNKVVAKYIDQGVAELIPGVLFIDEVNMLDIEIFTYLNKALESNIAPVVVLASNRGMTTVRGTEDVISPHGVPPDLIDRLLIVRTLPYDKDEIRTIIERRATVERLQVESSALDLLATMGTETSLRYALQLLAPCGILAQTSNRKEIVVNDVNEAKLLFLDAKRSTKILETSANYL |  |  | 1 Rvb1 per Rvb2 (3:3) | 1 Rvb1 per Rvb2 (3:3 in the hexamer) |
